Patent publication US20140235701, “NGF APTAMER AND APPLICATION THEREOF” (RIBOMIC INC., published 2014)

T1: NT-4 (neurotrophin-4) (Homo sapiens, UniProt P34130 P34130:81-210)
T1 sequence: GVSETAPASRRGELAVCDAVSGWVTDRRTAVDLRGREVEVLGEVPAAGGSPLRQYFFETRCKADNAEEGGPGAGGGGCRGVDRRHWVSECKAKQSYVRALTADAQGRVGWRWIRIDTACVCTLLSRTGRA

T2: NT-3 (neurotrophin-3) (Homo sapiens, UniProt P20783 P20783:139-257)
T2 sequence: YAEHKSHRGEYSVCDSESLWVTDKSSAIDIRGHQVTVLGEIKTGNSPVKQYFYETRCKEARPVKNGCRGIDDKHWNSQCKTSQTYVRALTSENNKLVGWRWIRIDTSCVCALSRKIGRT

B1: SEQ ID NO: 87(2) (ssRNA)
RNA: GGGUCCUGCUCAAGAGUUUCCGUCUCGUGGGCUGUUACCC
modifications: 2'-OMe G1-3,U4,C6,G14,G16,C21,G22,U23,C26,G27,U28,C32,U35,C38-40; other C/U 2'-F, G 2'-OH, dA; 5',3' idT
B2: SEQ ID NO: 61 (ssRNA)
RNA: GGGAGAACUUCGACCAGAAGUUAGCACAUCCUGCUGCGUAGUUUCCGUCUUCGCGGUUGUUAUGUGCGCAUACAUGGAUCCUC
modifications: 2'-F C/U, dA, 2'-OH G

Assays:
Conditions in all cases: tags: R&D Systems; chain copies: 2
[1] = biological target: T3, NGF (nerve growth factor) (Homo sapiens, UniProt P01138 P01138:122-241); experiment: cell_activity; neurite; TF-1 <0.1
NT-4 (neurotrophin-4) [2] = biological target: T1, NT-4 (neurotrophin-4); experiment: cell_activity; TF-1
Description: Using TF-1 cells, whether NGF aptamer inhibits BDNF, NT-3, NT-4 was examined. Human receptor genes (TrkB, TrkC, p75) for respective neurotrophic factors were introduced into TF-1 cells (ATCC Number: CRL-2003), which is a human erythroleukemic cell line, by using a retrovirus vector to give cells that highly express these receptors stably. TF-1 cells introduced with TrkB and p75 were used for the evaluation of inhibitory activity against BDNF, TF-1 cells introduced with TrkC and p75 were used for the evaluation against NT-3, and TF-1 cells introduced with TrkB alone were used for the evaluation against NT-4. These cells were suspended in an RPMI-1640 medium containing 20% fetal bovine serum, and seeded in a white 96 well flat-bottom plate at 1000 cells (50 μL) per well. Thereto was added a mixed solution 50 μL of human BDNF (final concentration 0.074 nM) or NT-3 (final concentration 0.074 nM) or NT-4 (final concentration 0.071 nM) and the aptamer (final concentration 1 μM-0.01 nM), which had been pre-reacted at room temperature for 30 min in a serum-free RPMI-1640 medium, 3 days later, 100 μL of CellTiter-Glo reagent for CellTiter-Glo Luminescent Cell Viability Assay (manufactured by Promega) was added to each well, chemiluminescence was measured by a microplate reader. With the amount of luminescence per well obtained by the addition of BDNF or NT-3 or NT-4 alone and culture of the cells for 3 days as inhibitory activity 0%, and that of the well obtained by culture for 3 days without addition of BDNF or NT-3 or NT-4 as inhibitory activity 100%, the inhibitory activity of the aptamer was calculated from the amount of luminescence per well obtained by culturing with the addition of BDNF or NT-3 or NT-4 and the aptamer in mixture. When the inhibitory activity was 0 or below, ‘0%’ is indicated. The 50% inhibitory concentration (IC₅₀) was determined from the concentrations at two, above and below points sandwiching the 50% inhibitory activity. An IC₅₀ value indicated as “>X” means that the inhibitory activity was not more than 50% when the indicated concentration X was the maximum measured concentration. N.D. means not measured.

NT-3 (neurotrophin-3) = biological target: T2, NT-3 (neurotrophin-3); experiment: SPR; scarcely bound
Experimental: (§1) The binding activity of these shortened forms to NGF and NT-3 was measured by the surface plasmon resonance method. For the measurement method, BIAcore2000 manufactured by BIAcore was used and CM5 reactive with amino group was used as a sensorchip, as shown in Example 1. The protein was immobilized in the same manner as in Example 1 by using ethyl-3-carbodiimide hydrochloride and N-hydroxysuccinimide. […] After protein immobilization, blocking with ethanolamine-HCl was performed. The amount of immobilized NGF and NT-3 was 3,000-4,000 RU and 3,000-5,000 RU, respectively. The aptamer for an analyte was prepared to 0.15 μM-0.5 μM. The running buffer and regeneration solution were the same as those in Example 1. NT-3 was immobilized on FC2, and NGF on FC3, and the final sensorgram was obtained by subtracting the results of FC1.
(§2) Then, the aptamers were subjected to shortening to 40 mer in the same manner as with consensus secondary structure 1. […] NT-4 was measured in the same manner as in NT-3.
(§3) The shortened sequences were measured for the binding to NGF, NT-3, NT-4 by the surface plasmon resonance method. The measurement was performed in the same manner as in Example 13.

NT-4 (neurotrophin-4) [3] = biological target: T1, NT-4 (neurotrophin-4); experiment: SPR; scarcely bound
Experimental: as §1, §2, §3

[4] = biological target: T3, NGF (nerve growth factor); experiment: cell_activity; neurite; TF-1 >1
[5] = biological target: T3, NGF (nerve growth factor); experiment: SPR; more than 40N control

T3 sequence (P01138 122-241, one chain of several): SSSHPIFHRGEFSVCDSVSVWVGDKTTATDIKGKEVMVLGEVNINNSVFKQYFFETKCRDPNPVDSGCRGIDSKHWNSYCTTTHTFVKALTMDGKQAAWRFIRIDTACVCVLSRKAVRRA

Row | Binder | IC50 [1] | IC50 (NT-4 (neurotrophin-4) [2]) | binding result (NT-3 (neurotrophin-3)) | binding result (NT-4 (neurotrophin-4) [3]) | IC50 [4] | binding result [5]
1 | GGGUCCUGUGGAAGAGUUUCCGUCUCGUCCACUGUUACCC (ssRNA, 2'-OMe G1-3,C38-40; other C/U 2'-F, G 2'-OH, dA; 5',3' idT) [SEQ ID NO: 89(1)] | 0.246 nM |  |  |  |  | 
2 | GGGUCCUGUUCAAGAGUUUCCGUCUCGUGAACUGUUACCC (ssRNA, 2'-OMe C38-40; other C/U 2'-F, G 2'-OH, dA; 5',3' idT) [SEQ ID NO: 88(1)] | 0.241 nM | < 100 nM |  |  |  | 
3 | GGGUCCUGCUGCGUAGUUUCCGUCUGCGUGGUUGUUACCC (ssRNA, 2'-F C/U, dA, 2'-OH G) [SEQ ID NO: 103] |  |  | no binding | no binding | 0.766 nM | 
4 | GGGUCCUGUUGCGUAGUUUCCGUCUGCGUGACUGUUACCC (ssRNA, 2'-F C/U, dA, 2'-OH G) [SEQ ID NO: 108] |  |  | no binding | no binding | 0.403 nM | 
5 | GGGUCCUGCUGUGUAGUUUCCGUCUGCAUGGUUGUUACCC (ssRNA, 2'-F C/U, dA, 2'-OH G) [SEQ ID NO: 113] |  |  | no binding | no binding | 0.96 nM | 
6 | GGGUCCUGCUGCGAAGUUUCCGUCUUCGUGGCUGUUACCC (ssRNA, 2'-F C/U, dA, 2'-OH G) [SEQ ID NO: 107] |  |  | no binding | no binding | 0.967 nM | 
7 | GGGUCCUGCUGCGUAGUUUCCUUCUGCGUGGCUGUUACCC (ssRNA, 2'-F C/U, dA, 2'-OH G) [SEQ ID NO: 109] |  |  | no binding | no binding | 0.687 nM | 
8 | GGGUCCUGCUGCGUAGUUUCCGUCUGCGUAGCUGUUACCC (ssRNA, 2'-F C/U, dA, 2'-OH G) [SEQ ID NO: 106] |  |  | no binding | no binding | 0.77 nM | 
9 | GGGUCCUGCCGCGUAGUUUCCGUCUGCGUGGCUGUUACCC (ssRNA, 2'-F C/U, dA, 2'-OH G) [SEQ ID NO: 110] |  |  | no binding | no binding | 0.999 nM | 
10 | GGGUCCUGUUGCUAAGUUUCCGUCUUAGUGACUGUUACCC (ssRNA, 2'-F C/U, dA, 2'-OH G) [SEQ ID NO: 105] |  |  | no binding | no binding | 0.444 nM | 
11 | GGGUCCUGCUCAAGAGUUUCCGUCUCGUGGGCUGUUACCC (ssRNA, 2'-OMe G1-3,C38-40; other C/U 2'-F, G 2'-OH, dA; 5',3' idT) [SEQ ID NO: 87(1)] | 0.173 nM | < 100 nM |  |  |  | 
12 | GGGUCCUGCUCAAGAGUUUCCGUCUCGUGGGCUGUUACCC (ssRNA, as 87(2) plus 2'-OMe G29-31) [SEQ ID NO: 87(3)] | 0.118 nM |  |  |  |  | 
13 | B1 | 0.107 nM |  |  |  |  | 
14 | GGGUCCUGCUCAAGAGUUUCCGUCUCGUGGGCUGUUACCC (ssRNA, as 87(2) plus 2'-OMe C9,U10,C11,G29-31) [SEQ ID NO: 87(4)] | 0.113 nM |  |  |  |  | 
15 | B2 |  |  |  |  |  | binds
16 | GGGUCCUGACGUAUAGUUUCCGUCUGUAUGUCUGUUACCC (ssRNA, 2'-F C/U, dA, 2'-OH G) [SEQ ID NO: 101] |  |  |  |  | 0.994 nM | 
17 | GGGUCCUGAUGUCAAGUUUCCGUCUUGAUGUCUGUUACCC (ssRNA, 2'-F C/U, dA, 2'-OH G) [SEQ ID NO: 104] |  |  | no binding | no binding | 0.682 nM | 
